B1: H183/L072 VH W33L (antibody, name in Kabat numbering, V domains shown)
VH: QVQLVESGGGLVQPGRSLRLSCAASGFTFSNALMHWVRQAPGKGLEWVAQIKDKGNAYAAYYAPSVKGRFTISRDDSKNSIYLQMNSLKTEDTAVYYCHYVHYASASTVLPAFGVDAWGQGTTVTVSS
VL: DIVMTQSPLSLPVTPGEPASISCQASQELVHMNRNTYLHWYQQKPGQAPRLLIYKVSNRFPGVPDRFSGSGSGTDFTLKISRVEAEDVGVYYCAQGTSVPFTFGQGTKLEIK
B2: H183/L072 VH Y55H (antibody, name in Kabat numbering, V domains shown)
VH: QVQLVESGGGLVQPGRSLRLSCAASGFTFSNAWMHWVRQAPGKGLEWVAQIKDKGNAHAAYYAPSVKGRFTISRDDSKNSIYLQMNSLKTEDTAVYYCHYVHYASASTVLPAFGVDAWGQGTTVTVSS
VL: DIVMTQSPLSLPVTPGEPASISCQASQELVHMNRNTYLHWYQQKPGQAPRLLIYKVSNRFPGVPDRFSGSGSGTDFTLKISRVEAEDVGVYYCAQGTSVPFTFGQGTKLEIK
B3: H183/L072 VH Y55N (antibody, name in Kabat numbering, V domains shown)
VH: QVQLVESGGGLVQPGRSLRLSCAASGFTFSNAWMHWVRQAPGKGLEWVAQIKDKGNANAAYYAPSVKGRFTISRDDSKNSIYLQMNSLKTEDTAVYYCHYVHYASASTVLPAFGVDAWGQGTTVTVSS
VL: DIVMTQSPLSLPVTPGEPASISCQASQELVHMNRNTYLHWYQQKPGQAPRLLIYKVSNRFPGVPDRFSGSGSGTDFTLKISRVEAEDVGVYYCAQGTSVPFTFGQGTKLEIK
B4: H183/L072 VH Y55Q (antibody, name in Kabat numbering, V domains shown)
VH: QVQLVESGGGLVQPGRSLRLSCAASGFTFSNAWMHWVRQAPGKGLEWVAQIKDKGNAQAAYYAPSVKGRFTISRDDSKNSIYLQMNSLKTEDTAVYYCHYVHYASASTVLPAFGVDAWGQGTTVTVSS
VL: DIVMTQSPLSLPVTPGEPASISCQASQELVHMNRNTYLHWYQQKPGQAPRLLIYKVSNRFPGVPDRFSGSGSGTDFTLKISRVEAEDVGVYYCAQGTSVPFTFGQGTKLEIK
B5: H183/L072 VH Y58I (antibody, name in Kabat numbering, V domains shown)
VH: QVQLVESGGGLVQPGRSLRLSCAASGFTFSNAWMHWVRQAPGKGLEWVAQIKDKGNAYAAIYAPSVKGRFTISRDDSKNSIYLQMNSLKTEDTAVYYCHYVHYASASTVLPAFGVDAWGQGTTVTVSS
VL: DIVMTQSPLSLPVTPGEPASISCQASQELVHMNRNTYLHWYQQKPGQAPRLLIYKVSNRFPGVPDRFSGSGSGTDFTLKISRVEAEDVGVYYCAQGTSVPFTFGQGTKLEIK
B6: H183/L072 VH Y58G (antibody, name in Kabat numbering, V domains shown)
VH: QVQLVESGGGLVQPGRSLRLSCAASGFTFSNAWMHWVRQAPGKGLEWVAQIKDKGNAYAAGYAPSVKGRFTISRDDSKNSIYLQMNSLKTEDTAVYYCHYVHYASASTVLPAFGVDAWGQGTTVTVSS
VL: DIVMTQSPLSLPVTPGEPASISCQASQELVHMNRNTYLHWYQQKPGQAPRLLIYKVSNRFPGVPDRFSGSGSGTDFTLKISRVEAEDVGVYYCAQGTSVPFTFGQGTKLEIK
B7: H183/L072 VH Y55E (antibody, name in Kabat numbering, V domains shown)
VH: QVQLVESGGGLVQPGRSLRLSCAASGFTFSNAWMHWVRQAPGKGLEWVAQIKDKGNAEAAYYAPSVKGRFTISRDDSKNSIYLQMNSLKTEDTAVYYCHYVHYASASTVLPAFGVDAWGQGTTVTVSS
VL: DIVMTQSPLSLPVTPGEPASISCQASQELVHMNRNTYLHWYQQKPGQAPRLLIYKVSNRFPGVPDRFSGSGSGTDFTLKISRVEAEDVGVYYCAQGTSVPFTFGQGTKLEIK
B8: H183/L072 VH Y55K (antibody, name in Kabat numbering, V domains shown)
VH: QVQLVESGGGLVQPGRSLRLSCAASGFTFSNAWMHWVRQAPGKGLEWVAQIKDKGNAKAAYYAPSVKGRFTISRDDSKNSIYLQMNSLKTEDTAVYYCHYVHYASASTVLPAFGVDAWGQGTTVTVSS
VL: DIVMTQSPLSLPVTPGEPASISCQASQELVHMNRNTYLHWYQQKPGQAPRLLIYKVSNRFPGVPDRFSGSGSGTDFTLKISRVEAEDVGVYYCAQGTSVPFTFGQGTKLEIK
B9: H183/L072 VH Y55L (antibody, name in Kabat numbering, V domains shown)
VH: QVQLVESGGGLVQPGRSLRLSCAASGFTFSNAWMHWVRQAPGKGLEWVAQIKDKGNALAAYYAPSVKGRFTISRDDSKNSIYLQMNSLKTEDTAVYYCHYVHYASASTVLPAFGVDAWGQGTTVTVSS
VL: DIVMTQSPLSLPVTPGEPASISCQASQELVHMNRNTYLHWYQQKPGQAPRLLIYKVSNRFPGVPDRFSGSGSGTDFTLKISRVEAEDVGVYYCAQGTSVPFTFGQGTKLEIK
B10: H183/L072 VH Y55G (antibody, name in Kabat numbering, V domains shown)
VH: QVQLVESGGGLVQPGRSLRLSCAASGFTFSNAWMHWVRQAPGKGLEWVAQIKDKGNAGAAYYAPSVKGRFTISRDDSKNSIYLQMNSLKTEDTAVYYCHYVHYASASTVLPAFGVDAWGQGTTVTVSS
VL: DIVMTQSPLSLPVTPGEPASISCQASQELVHMNRNTYLHWYQQKPGQAPRLLIYKVSNRFPGVPDRFSGSGSGTDFTLKISRVEAEDVGVYYCAQGTSVPFTFGQGTKLEIK
B11: H183/L072 VH Y58D (antibody, name in Kabat numbering, V domains shown)
VH: QVQLVESGGGLVQPGRSLRLSCAASGFTFSNAWMHWVRQAPGKGLEWVAQIKDKGNAYAADYAPSVKGRFTISRDDSKNSIYLQMNSLKTEDTAVYYCHYVHYASASTVLPAFGVDAWGQGTTVTVSS
VL: DIVMTQSPLSLPVTPGEPASISCQASQELVHMNRNTYLHWYQQKPGQAPRLLIYKVSNRFPGVPDRFSGSGSGTDFTLKISRVEAEDVGVYYCAQGTSVPFTFGQGTKLEIK
B12: H183/L072 VH Y55M (antibody, name in Kabat numbering, V domains shown)
VH: QVQLVESGGGLVQPGRSLRLSCAASGFTFSNAWMHWVRQAPGKGLEWVAQIKDKGNAMAAYYAPSVKGRFTISRDDSKNSIYLQMNSLKTEDTAVYYCHYVHYASASTVLPAFGVDAWGQGTTVTVSS
VL: DIVMTQSPLSLPVTPGEPASISCQASQELVHMNRNTYLHWYQQKPGQAPRLLIYKVSNRFPGVPDRFSGSGSGTDFTLKISRVEAEDVGVYYCAQGTSVPFTFGQGTKLEIK
B13: H183/L072 VH Y58H (antibody, name in Kabat numbering, V domains shown)
VH: QVQLVESGGGLVQPGRSLRLSCAASGFTFSNAWMHWVRQAPGKGLEWVAQIKDKGNAYAAHYAPSVKGRFTISRDDSKNSIYLQMNSLKTEDTAVYYCHYVHYASASTVLPAFGVDAWGQGTTVTVSS
VL: DIVMTQSPLSLPVTPGEPASISCQASQELVHMNRNTYLHWYQQKPGQAPRLLIYKVSNRFPGVPDRFSGSGSGTDFTLKISRVEAEDVGVYYCAQGTSVPFTFGQGTKLEIK
B14: H183/L072 VH Y58A (antibody, name in Kabat numbering, V domains shown)
VH: QVQLVESGGGLVQPGRSLRLSCAASGFTFSNAWMHWVRQAPGKGLEWVAQIKDKGNAYAAAYAPSVKGRFTISRDDSKNSIYLQMNSLKTEDTAVYYCHYVHYASASTVLPAFGVDAWGQGTTVTVSS
VL: DIVMTQSPLSLPVTPGEPASISCQASQELVHMNRNTYLHWYQQKPGQAPRLLIYKVSNRFPGVPDRFSGSGSGTDFTLKISRVEAEDVGVYYCAQGTSVPFTFGQGTKLEIK
B15: H183/L072 VH Y58E (antibody, name in Kabat numbering, V domains shown)
VH: QVQLVESGGGLVQPGRSLRLSCAASGFTFSNAWMHWVRQAPGKGLEWVAQIKDKGNAYAAEYAPSVKGRFTISRDDSKNSIYLQMNSLKTEDTAVYYCHYVHYASASTVLPAFGVDAWGQGTTVTVSS
VL: DIVMTQSPLSLPVTPGEPASISCQASQELVHMNRNTYLHWYQQKPGQAPRLLIYKVSNRFPGVPDRFSGSGSGTDFTLKISRVEAEDVGVYYCAQGTSVPFTFGQGTKLEIK
B16: H183/L072 VH W33Y (antibody, name in Kabat numbering, V domains shown)
VH: QVQLVESGGGLVQPGRSLRLSCAASGFTFSNAYMHWVRQAPGKGLEWVAQIKDKGNAYAAYYAPSVKGRFTISRDDSKNSIYLQMNSLKTEDTAVYYCHYVHYASASTVLPAFGVDAWGQGTTVTVSS
VL: DIVMTQSPLSLPVTPGEPASISCQASQELVHMNRNTYLHWYQQKPGQAPRLLIYKVSNRFPGVPDRFSGSGSGTDFTLKISRVEAEDVGVYYCAQGTSVPFTFGQGTKLEIK
B17: H183/L072 VH Y55A (antibody, name in Kabat numbering, V domains shown)
VH: QVQLVESGGGLVQPGRSLRLSCAASGFTFSNAWMHWVRQAPGKGLEWVAQIKDKGNAAAAYYAPSVKGRFTISRDDSKNSIYLQMNSLKTEDTAVYYCHYVHYASASTVLPAFGVDAWGQGTTVTVSS
VL: DIVMTQSPLSLPVTPGEPASISCQASQELVHMNRNTYLHWYQQKPGQAPRLLIYKVSNRFPGVPDRFSGSGSGTDFTLKISRVEAEDVGVYYCAQGTSVPFTFGQGTKLEIK
B18: H183/L072 VH Y55F (antibody, name in Kabat numbering, V domains shown)
VH: QVQLVESGGGLVQPGRSLRLSCAASGFTFSNAWMHWVRQAPGKGLEWVAQIKDKGNAFAAYYAPSVKGRFTISRDDSKNSIYLQMNSLKTEDTAVYYCHYVHYASASTVLPAFGVDAWGQGTTVTVSS
VL: DIVMTQSPLSLPVTPGEPASISCQASQELVHMNRNTYLHWYQQKPGQAPRLLIYKVSNRFPGVPDRFSGSGSGTDFTLKISRVEAEDVGVYYCAQGTSVPFTFGQGTKLEIK
B19: H183/L072 VH Y55D (antibody, name in Kabat numbering, V domains shown)
VH: QVQLVESGGGLVQPGRSLRLSCAASGFTFSNAWMHWVRQAPGKGLEWVAQIKDKGNADAAYYAPSVKGRFTISRDDSKNSIYLQMNSLKTEDTAVYYCHYVHYASASTVLPAFGVDAWGQGTTVTVSS
VL: DIVMTQSPLSLPVTPGEPASISCQASQELVHMNRNTYLHWYQQKPGQAPRLLIYKVSNRFPGVPDRFSGSGSGTDFTLKISRVEAEDVGVYYCAQGTSVPFTFGQGTKLEIK
B20: H183/L072 VH Y58F (antibody, name in Kabat numbering, V domains shown)
VH: QVQLVESGGGLVQPGRSLRLSCAASGFTFSNAWMHWVRQAPGKGLEWVAQIKDKGNAYAAFYAPSVKGRFTISRDDSKNSIYLQMNSLKTEDTAVYYCHYVHYASASTVLPAFGVDAWGQGTTVTVSS
VL: DIVMTQSPLSLPVTPGEPASISCQASQELVHMNRNTYLHWYQQKPGQAPRLLIYKVSNRFPGVPDRFSGSGSGTDFTLKISRVEAEDVGVYYCAQGTSVPFTFGQGTKLEIK

Each binder was assayed against T1, Human CD137 ECD (human) (assay: single mutant vs template dBBDu183H).
T1 construct: also called 4-1BB
T1 sequence (chain, as listed by the source limits assumed): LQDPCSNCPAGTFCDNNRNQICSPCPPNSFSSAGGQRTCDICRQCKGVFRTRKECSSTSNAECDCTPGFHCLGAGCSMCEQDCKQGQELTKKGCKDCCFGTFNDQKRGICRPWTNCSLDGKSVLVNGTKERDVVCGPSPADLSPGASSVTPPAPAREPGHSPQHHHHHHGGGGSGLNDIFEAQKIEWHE

Row | Binder | fold change of affinity [fold]
1 | B1 | 0
2 | B2 | 0.4
3 | B3 | 0.7
4 | B4 | 0.2
5 | B5 | 0.2
6 | B6 | 0.2
7 | B7 | 0.4
8 | B8 | 0.2
9 | B9 | 0.3
10 | B10 | 0.3
11 | B11 | 0.1
12 | B12 | 0.4
13 | B13 | 0.3
14 | B14 | 0.2
15 | B15 | 0.3
16 | B16 | 0
17 | B17 | 0.3
18 | B18 | 0.5
19 | B19 | 0.4
20 | B20 | 0.9

From patent US20210388087A1 (Chugai, published 2021)
